{"source": "paper PMC2151661", "key": {"[1]": {"target": "human ENaC αβγ_(V182G;V193G) (human) (UniProt P37088)"}, "[2]": {"target": "wild-type human epithelial Na+ channel (α, β, γ ENaC) (human) (UniProt P37088)"}, "[3]": {"target": "human ENaC αβγ_(A190G) (human) (UniProt P37088)"}, "[4]": {"target": "human ENaC αβγ_(V182G;V193G) (human) (UniProt P37088)", "remark": "listed apart in the source"}, "[5]": {"target": "wild-type human epithelial Na+ channel (α, β, γ ENaC) (human) (UniProt P37088)", "remark": "listed apart in the source"}, "[6]": {"target": "human ENaC αβγ_(V182G;V193G) (human) (UniProt P37088)", "remark": "listed apart in the source"}, "[7]": {"target": "wild-type human epithelial Na+ channel (α, β, γ ENaC) (human) (UniProt P37088)", "remark": "listed apart in the source"}, "[8]": {"target": "wild-type human epithelial Na+ channel (α, β, γ ENaC) (human) (UniProt P37088)", "remark": "listed apart in the source"}, "[9]": {"target": "human ENaC αβγ_(A190G) (human) (UniProt P37088)", "remark": "listed apart in the source"}, "[10]": {"target": "human ENaC αβγ_(V182G;V193G) (human) (UniProt P37088)", "remark": "listed apart in the source"}, "[11]": {"target": "wild-type human epithelial Na+ channel (α, β, γ ENaC) (human) (UniProt P37088)", "remark": "listed apart in the source"}, "[12]": {"target": "human ENaC αβγ_(V182G;V193G) (human) (UniProt P37088)", "remark": "listed apart in the source"}, "[13]": {"target": "wild-type human epithelial Na+ channel (α, β, γ ENaC) (human) (UniProt P37088)", "remark": "listed apart in the source"}, "[14]": {"target": "human ENaC αβγTh (thrombin consensus sequence LVPRG at γ186-190) (human) (UniProt P37088)"}}, "data": [{"substance": "porcine pancreatic elastase (from UniProt P00772 27-266) (enzyme)", "values": [{"measurement": "time constant τ of INa activation by 300 nM PE, aprotinin-treated FRT cells", "setting": "[1]", "value": 3.6, "unit": "min"}, {"measurement": "time constant τ of INa activation by 300 nM PE, aprotinin-treated FRT cells", "setting": "[2]", "value": 2, "unit": "min"}, {"measurement": "ΔIPR^Norm, 1,000 nM PE, aprotinin-treated FRT cells", "setting": "[3]", "value": 0.26}, {"measurement": "time constant τ of INa activation by 1,000 nM PE, aprotinin-treated FRT cells", "setting": "[4]", "value": 2.17, "unit": "min"}, {"measurement": "ΔIPR^Norm, 1,000 nM PE, aprotinin-treated FRT cells", "setting": "[4]", "value": 0.89}, {"measurement": "time constant τ of INa activation by 1,000 nM PE, aprotinin-treated FRT cells", "setting": "[5]", "value": 1.94, "unit": "min"}, {"measurement": "ΔIPR^Norm, 1,000 nM PE, aprotinin-treated FRT cells", "setting": "[5]", "value": 0.7}, {"measurement": "K1/2 (PE concentration at half maximal stimulation of ΔIPR^Norm)", "setting": "[6]", "value": 35, "unit": "nM"}, {"measurement": "apparent KM from kobs of INa activation against PE concentration (Eq. 8)", "setting": "[6]", "value": 290, "unit": "nM"}, {"measurement": "K1/2 (PE concentration at half maximal stimulation of ΔIPR^Norm)", "setting": "[7]", "value": 77, "unit": "nM"}, {"measurement": "apparent KM from kobs of INa activation against PE concentration (Eq. 8)", "setting": "[7]", "value": 204, "unit": "nM"}, {"measurement": "ΔIPR^Norm, 300 nM PE, aprotinin-treated FRT cells (comparison with αβγTh)", "setting": "[8]", "value": 0.7}, {"measurement": "K1/2 (PE concentration at half maximal stimulation of ΔIPR^Norm)", "setting": "[9]", "value": 1140, "unit": "nM"}]}, {"substance": "human neutrophil elastase (from UniProt P08246 30-267) (enzyme)", "values": [{"measurement": "ΔIPR^Norm against NE concentration, 30 to 1,000 nM, aprotinin-treated FRT cells", "setting": "[10]", "value": 0.52}, {"measurement": "ΔIPR^Norm against NE concentration, 30 to 1,000 nM, aprotinin-treated FRT cells", "setting": "[11]", "value": 0.75}, {"measurement": "K1/2 (NE concentration at half maximal stimulation of ΔIPR^Norm)", "setting": "[12]", "value": 510, "unit": "nM"}, {"measurement": "K1/2 (NE concentration at half maximal stimulation of ΔIPR^Norm)", "setting": "[13]", "value": 100, "unit": "nM"}, {"measurement": "apparent KM from kobs (1/τ) of INa activation against NE concentration (Eq. 8)", "setting": "[13]", "value": 570, "unit": "nM"}, {"measurement": "ΔIPR^Norm, 300 nM NE, aprotinin-treated FRT cells (comparison with αβγTh)", "setting": "[8]", "value": 0.6}]}, {"substance": "human α thrombin (enzyme)", "values": [{"measurement": "K1/2 (TH concentration at half maximal stimulation of ΔIPR^Norm)", "setting": "[14]", "value": 14.8, "unit": "nM"}, {"measurement": "apparent KM from kobs of INa activation against TH concentration (Eq. 8)", "setting": "[14]", "value": 340, "unit": "nM"}, {"measurement": "ΔIPR^Norm, 300 nM TH, aprotinin-treated FRT cells", "setting": "[8]", "value": 0.1}]}]}
